B1: TMEM106C (parent)
chain: FTGRDSITCLTCQGTGYIPTEQVN

Variants of: B1
Experiment: protein stability index of a GFP-peptide fusion (GPS, HEK-293T) (PSI 1-6); higher = more stable
Conditions: c terminus: a fixed tail appended
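Further: lentivirally expressed fusions sorted by FACS into six bins by GFP to DsRed ratio, PSI derived from sequencing read proportions per bin multiplied by bin number.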

| Variant | protein stability index |
| --- | --- |
| FTGRDSITCLVCQGTGYIPTEQVN | 2.66 |
| FTGRDSITCLSCQGTGYIPTEQVN | 2.01 |
| FTGRDSITCLQCQGTGYIPTEQVN | 1.85 |
| FTGRDSITCLDCQGTGYIPTEQVN | 2.42 |
| FTGRDSITCLYCQGTGYIPTEQVN | 2.07 |
| FTGRDSITCLKCQGTGYIPTEQVN | 1.7 |
| FTGRDSITCLHCQGTGYIPTEQVN | 2.06 |
| FTGRDSITCLTCQGTWYIPTEQVN | 2.98 |
| FTGRDSITCLTCQGTDYIPTEQVN | 1.56 |
| FTGRDSITCLTCQGTCYIPTEQVN | 1.83 |
| FTGRDSITCLTCQGTFYIPTEQVN | 2.71 |
| FTGRDSITCLTCQGTHYIPTEQVN | 2.01 |
| FTGRDSITCDTCQGTGYIPTEQVN | 3.96 |
| FTGRDSITCWTCQGTGYIPTEQVN | 2.01 |
| FTGLDSITCLTCQGTGYIPTEQVN | 1.81 |
| FTGEDSITCLTCQGTGYIPTEQVN | 2.59 |
| FTGWDSITCLTCQGTGYIPTEQVN | 2.62 |
| FTGTDSITCLTCQGTGYIPTEQVN | 1.87 |
| FTGRDSITCLTCWGTGYIPTEQVN | 2.52 |
| FTGRDSITCLTCAGTGYIPTEQVN | 2.23 |
| FTGRDSITCLTCTGTGYIPTEQVN | 2.71 |
| FTGRDSITCLTCLGTGYIPTEQVN | 2.13 |
| FTGRDSITCLTCIGTGYIPTEQVN | 2.35 |
| FTGRDSITCLTCQITGYIPTEQVN | 2.53 |

| Variant | protein stability index |
| --- | --- |
| FTGRDSITCLTCQKTGYIPTEQVN | 1.66 |
| FTGRDSITCLTCQPTGYIPTEQVN | 1.29 |
| FTGRDSITCLTCQSTGYIPTEQVN | 1.58 |
| FTGRDSITCLTCQGTGYIRTEQVN | 1.26 |
| FTGRDSITCLTCQGTGYIPTEQVL | 1.91 |
| FTGRDSITCLTCQGTGYIPTEQVF | 1.92 |
| FTGRDSITCLTCQGTGYIPTEQVH | 2.07 |
| FTGRDSITCLTCQGTGYIPTEQVS | 2.27 |
| FTGRDSITCLTCQGYGYIPTEQVN | 2.52 |
| FTGRDSITCLTCQGFGYIPTEQVN | 2.26 |
| FTGRDSITCLTCQGAGYIPTEQVN | 2.12 |
| FTGRDSITCLTCQGKGYIPTEQVN | 2.12 |
| FTGRDSQTCLTCQGTGYIPTEQVN | 2.5 |
| FTGRDSFTCLTCQGTGYIPTEQVN | 1.6 |
| FTGRDSHTCLTCQGTGYIPTEQVN | 2.09 |
| FTGRDSITCLTNQGTGYIPTEQVN | 2.18 |
| FTGRDSITCLTEQGTGYIPTEQVN | 2.18 |
| FTGRDSITCLTYQGTGYIPTEQVN | 2.06 |
| FTGRDSITCLTTQGTGYIPTEQVN | 1.63 |
| FTGRDSITCLTHQGTGYIPTEQVN | 1.98 |
| FTGRDSITCLTWQGTGYIPTEQVN | 2.51 |
| YTGRDSITCLTCQGTGYIPTEQVN | 1.99 |
| PTGRDSITCLTCQGTGYIPTEQVN | 4.63 |
| FTGRDSITVLTCQGTGYIPTEQVN | 1.9 |

| Variant | protein stability index |
| --- | --- |
| FTGRDSITFLTCQGTGYIPTEQVN | 2.86 |
| FTGRDSITALTCQGTGYIPTEQVN | 2 |
| FTGRDSITELTCQGTGYIPTEQVN | 2.73 |
| FTGRDSITQLTCQGTGYIPTEQVN | 1.68 |
| FTGRDSITCLTCQGTGYLPTEQVN | 2.55 |
| FTGRDSITCLTCQGTGYPPTEQVN | 1.58 |
| FTGRDSITCLTCQGTGYFPTEQVN | 1.86 |
| FTGRDSITCLTCQGTGYSPTEQVN | 2.09 |
| FTGRDSITCLTCQGTGYWPTEQVN | 1.86 |
| FTFRDSITCLTCQGTGYIPTEQVN | 1.7 |
| FTGRDSITCLTCQGTGYIPGEQVN | 1.45 |
| FTGRDSITCLTCQGTGYIPNEQVN | 1.8 |
| FTGRDSITCLTCQGTGYIPSEQVN | 2.07 |
| FTGRDSITCLTCQGTGYIPFEQVN | 1.89 |
| FTGRDSITCLTCQGTGYIPVEQVN | 2.23 |
| FTGRDNITCLTCQGTGYIPTEQVN | 2.58 |
| FTGRDIITCLTCQGTGYIPTEQVN | 2.92 |
| FTGRDPITCLTCQGTGYIPTEQVN | 2.18 |
| FTGRDCITCLTCQGTGYIPTEQVN | 1.99 |
| FTGRDRITCLTCQGTGYIPTEQVN | 2.45 |
| FTGRDYITCLTCQGTGYIPTEQVN | 2.04 |
| FTGRFSITCLTCQGTGYIPTEQVN | 3 |
| FTGRMSITCLTCQGTGYIPTEQVN | 2.73 |
| FTGRNSITCLTCQGTGYIPTEQVN | 1.56 |

| Variant | protein stability index |
| --- | --- |
| FTGRISITCLTCQGTGYIPTEQVN | 2.65 |
| FTGRGSITCLTCQGTGYIPTEQVN | 1.49 |
| FTGRDSIPCLTCQGTGYIPTEQVN | 1.9 |
| FTGRDSIMCLTCQGTGYIPTEQVN | 2.4 |
| FTGRDSIWCLTCQGTGYIPTEQVN | 2.22 |
| FAGRDSITCLTCQGTGYIPTEQVN | 2.81 |
| FSGRDSITCLTCQGTGYIPTEQVN | 2.07 |
| FFGRDSITCLTCQGTGYIPTEQVN | 3.19 |
| FTGRDSITCLTCQGTGYIPTESVN | 1.79 |
| FTGRDSITCLTCQGTGYIPTEEVN | 1.73 |
| FTGRDSITCLTCQGTGYIPTEAVN | 2.07 |
| FTGRDSITCLTCQGTGYIPTENVN | 2.26 |
| FTGRDSITCLTCQGTGYIPTEHVN | 1.47 |
| FTGRDSITCLTCQGTGYIPTELVN | 2.52 |
| FTGRDSITCLTCQGTGYIPTCQVN | 3.11 |
| FTGRDSITCLTCQGTGYIPTFQVN | 1.22 |
| FTGRDSITCLTCQGTGYIPTGQVN | 1.76 |
| FTGRDSITCLTCQGTGYIPTSQVN | 1.94 |
| FTGRDSITCLTCQGTGEIPTEQVN | 2.2 |
| FTGRDSITCLTCQGTGDIPTEQVN | 2.17 |
| FTGRDSITCLTCQGTGCIPTEQVN | 2.13 |
| FTGRDSITCLTCQGTGGIPTEQVN | 1.47 |

From the supplement of paper PMC10567573
